From patent publication US20240024479A1, “NK CELLS OR T CELLS EXPRESSING CHIMERIC HEMATOPOIETIC GROWTH FACTOR RECEPTORS AND METHODS OF USE” (The United States of America, as represented by the …, priority 2020, published 2024) come the findings set out here.

Data set [1] concerns the target human thrombopoietin receptor (c-MPL) expressed on transduced NK or T cells (human) (UniProt P40238). Kind of data set: cell-based or functional assay.
Data set [2] deals with c-MPL transduced NK cells. The data set is described as follows: Proliferation of c-MPL-expressing human NK cells with thrombopoietin mimetics. In kind it is cell-based. The settings on record: 4-5 days culture. As to the method:
FIGS. 16A-16C show proliferation of human NK cells transduced to express GFP and c-MPL cultured for 4-5 days with the indicated concentrations of thrombopoietin (FIG. 16A), romiplostim (FIG. 16B), or eltrombopag (FIG. 16C). […] Mean and SEM of results from 3 blood donors are shown.
NK cells from PBMC from three blood donors were stimulated and transduced to express GFP and c-MPL, then were cultured for 4-5 days with thrombopoietin, romiplostim, or eltrombopag.

The subject of data set [3] is NK cells transduced to express MPL or MPL-IL2RB chimeric receptors. The data set is described as follows: Phospho-STAT5 and phospho-S6 signaling in transduced NK cells. In kind it is cell-based, human.
Data set [4] has as its system primary human NK cells. Kind of data set: Chimeric MPL-IL2RB constructs (lentiviral) in primary human NK cells, cell numbers with MPL ligands. The data set is classed as cell-based. The settings on record: after 4 days; medium lacking cytokines; lentiviral vectors. From the text:
(§1) Lentiviral and retroviral vectors expressing MPL-IL2RB and other chimeric MPL receptors: Lentiviral vectors were created by Vectorbuilder (IL, USA) by insertion of DNA sequences encoding EGFP and chimeric molecules including extracellular, transmembrane, and in some cases, proximal intracellular regions of human MPL (NM_005373.3) fused with partial intracellular domains from human IL2RB (NM_000878.5) using the linkages as shown in FIG. 17. Certain of these chimeric receptor sequences were also inserted into a gamma retroviral vector backbone also encoding EGFP or firefly luciferase. Analogous vectors encoding unmodified MPL (NM_005373.3) were used for comparison. […]
(§2) In vitro cell culture experiments with human NK cells expressing MPL-IL2RB: Approximately 2-4 days after transduction, NK cells were placed in culture with varied concentrations of eltrombopag (Selleckchem, TX, USA) or romiplostim (Amgen, CA, USA); where concentrations are not indicated, 0.33 ug/mL eltrombopag or 1.5 ng/mL romiplostim were used. […] Numbers of GFP^+ cells were quantitated after 4-6 days (or indicated durations) using a BD Fortessa flow cytometer (BD Biosciences, NJ, USA) and compared with initial numbers to determine the fold expansion.

The next data set relates to K562 target cells. The data set is described as follows: Degranulation and cytokine production of NK cells expressing MPL-IL2RB or MPL with K562 targets. The settings on record: for degranulation of cytotoxic granules in response to K562 target cells: 4-day exposure to eltrombopag or romiplostim; for production of IFN-gamma and TNF: culture with eltrombopag or romiplostim and exposure to K562 targets. The data set is classed as cell-based, human. The method, then: To examine degranulation, cells were washed after two hours and stained with anti-CD107a (H4A3) (BioLegend). To assay cytokine production, GolgiPlug and GolgiStop (BD Biosciences) were added at manufacturer's recommended concentrations within the first hour of co-culture with K562. After 4 hours, cells were washed and stained for cell surface markers, then stained intracellularly with mAb recognizing TNF-α (Mab 11) and IFN-γ (B27) (BD Biosciences).
(§3) In vitro cell culture experiments with human NK cells expressing MPL-IL2RB: Approximately 2-4 days after transduction, NK cells were placed in culture with varied concentrations of eltrombopag (Selleckchem, TX, USA) or romiplostim (Amgen, CA, USA); where concentrations are not indicated, 0.33 ug/mL eltrombopag or 1.5 ng/mL romiplostim were used. Medium and drugs were refreshed by addition of new medium or by changing half the culture volumes every 2-4 days. Numbers of GFP^+ cells were quantitated after 4-6 days (or indicated durations) using a BD Fortessa flow cytometer (BD Biosciences, NJ, USA) and compared with initial numbers to determine the fold expansion.

A further data set has as its system Human NK cells. The data set is described as follows: Matrix of IL-2 and eltrombopag concentrations, NK cell numbers after 6 days. In kind it is cell-based. The settings on record: for proliferation in the presence of eltrombopag at high IL-2 concentrations compared with IL-2 alone: 6 days. As to the method: as §3
Data set [5] concerns primary human NK cells. The data set is described as follows: Time course of survival/proliferation of NK cells expressing MPL-IL2RB (retroviral). The data set is classed as cell-based. The settings on record: varied concentrations of eltrombopag, romiplostim or thrombopoietin; retroviral vectors.
Excerpt: as §1, §2

Take “recombinant human thrombopoietin (rhTPO) (from UniProt P40225 22-353) (ligand)”: in data set [1], the Bcl-2 RMFI in c-MPL+ NK-92 cells with TPO amounted to 64.5 RMFI; the Bcl-xL RMFI in c-MPL+ NK-92 cells with TPO worked out at 4.52 RMFI; the CD107a degranulation of GFP+ MPL+ primary NK cells against K562, TPO plus 25 U/ml IL-2 came to 83%; the GFP fold-expansion of c-MPL transduced primary T cells, TPO alone, day 6 is 5.96 fold. In data set [1], the average percentage of GFP+ MPL+ cells among recovered human cells in blood and spleen of TPO-treated NSG mice (about 10% injected) is 15%; the average percentage of GFP+ MPL+ cells among recovered human cells in liver and lung of TPO-treated NSG mice (about 10% injected) turned out to be 20%; the expansion of c-MPL+ activated T cells, TPO plus LD IL-2, day 6 lay within 6 to 11.4 fold; the fold change of GFP+ c-MPL+ primary NK cells, TPO plus 10 U/ml IL-2, day 6 turned out to be 24.3 fold. Also, in data set [1], the fold change of GFP+ c-MPL+ primary NK cells, TPO plus 25 U/ml IL-2, day 6 stood at 34.1 fold; the fold expansion of c-MPL+ NK-92 cells with TPO alone, day 8 came out at 7 fold; the fold expansion of c-MPL+ NK-92 cells, TPO plus 1 U/ml IL-2, day 8 was 23.2 fold; the mean percentage of dead Raji cells, c-MPL+ NK-92 cells exposed to TPO plus LD IL-2, E:T 1:1 is 84%. For the same molecule, in data set [1], the mean percentage of dead Raji cells, c-MPL+ NK-92 cells exposed to TPO plus LD IL-2, E:T 10:1 worked out at 85%; the pS6 expression (RMFI) in c-MPL+ NK-92 cells, TPO plus LD IL-2 stood at 11.8 RMFI; the percentage of GFP+ MPL+ cells in parallel in vitro cultures of the mixed cells with only TPO was 31%.
Consider romiplostim, for which the “proliferation of c-MPL transduced NK cells” value in data set [2] is recorded as “induce proliferation”. Also, the “phosphorylated ribosomal protein S6 responses (mTOR activation)” value in data set [3] (NK cells expressing either MPL-IL2RB or MPL) was “induced”. The “phosphorylated STAT5” value in data set [3] (eltrombopag 0.33 μg/ml or romiplostim 1.5 ng/mL, compared with 5 U/mL IL-2) was “shorter dilution pSTAT5 response”.

B1: MPL: unmodified human MPL (NM_005373.3), SEQ ID NO: 1, expressed in NK cells for comparison (protein, listed as Homo sapiens)
chain: MPSWALFMVTSCLLLAPQNLAQVSSQDVSLLASDSEPLKCFSRTFEDLTCFWDEEEAAPSGTYQLLYAYPREKPRACPLSSQSMPHFGTRYVCQFPDQEEVRLFFPLHLWVKNVFLNQTRTQRVLFVDSVGLPAPPSIIKAMGGSQPGELQISWEEPAPEISDFLRYELRYGPRDPKNSTGPTVIQLIATETCCPALQRPHSASALDQSPCAQPTMPWQDGPKQTSPSREASALTAEGGSCLISGLQPGNSYWLQLRSEPDGISLGGSWGSWSLPVTVDLPGDAVALGLQCFTLDLKNVTCQWQQQDHASSQGFFYHSRARCCPRDRYPIWENCEEEEKTNPGLQTPQFSRCHFKSRNDSIIHILVEVTTAPGTVHSYLGSPFWIHQAVRLPTPNLHWREISSGHLELEWQHPSSWAAQETCYQLRYTGEGHQDWKVLEPPLGARGGTLELRPRSRYRLQLRARLNGPTYQGPWSSWSDPTRVETATETAWISLVTALHLVLGLSAVLGLLLLRWQFPAHYRRLRHALWPSLPDLHRVLGQYLRDTAALSPPKATVSDTCEEVEPSLLEILPKSSERTPLPLCSSQAQMDYRRLQPSCLGTMPLSVCPPMAESGSCCTTHIANHSYLPLSYWQQP
On to B1, for which the “NK cell numbers in presence of eltrombopag or romiplostim” value with primary human NK cells [4] is given as “greater cell numbers”. Besides, in the data set with K562 target cells, the “degranulation of cytotoxic granules in response to K562 target cells” value is “augmented degranulation”; the “production of IFN-gamma and TNF” value is on record as “augmented production”. In the data set with Human NK cells, the “proliferation in the presence of eltrombopag at high IL-2 concentrations compared with IL-2 alone” value is listed as “deficit in proliferation”.

B2: MPL-IL2RB: chimeric receptor, SEQ ID NO: 8 (amino acids 1-582, c-MPL; amino acids 583-801, IL2RB) (protein)
chain: MPSWALFMVTSCLLLAPQNLAQVSSQDVSLLASDSEPLKCFSRTFEDLTCFWDEEEAAPSGTYQLLYAYPREKPRACPLSSQSMPHFGTRYVCQFPDQEEVRLFFPLHLWVKNVFLNQTRTQRVLFVDSVGLPAPPSIIKAMGGSQPGELQISWEEPAPEISDFLRYELRYGPRDPKNSTGPTVIQLIATETCCPALQRPHSASALDQSPCAQPTMPWQDGPKQTSPSREASALTAEGGSCLISGLQPGNSYWLQLRSEPDGISLGGSWGSWSLPVTVDLPGDAVALGLQCFTLDLKNVTCQWQQQDHASSQGFFYHSRARCCPRDRYPIWENCEEEEKTNPGLQTPQFSRCHFKSRNDSIIHILVEVTTAPGTVHSYLGSPFWIHQAVRLPTPNLHWREISSGHLELEWQHPSSWAAQETCYQLRYTGEGHQDWKVLEPPLGARGGTLELRPRSRYRLQLRARLNGPTYQGPWSSWSDPTRVETATETAWISLVTALHLVLGLSAVLGLLLLRWQFPAHYRRLRHALWPSLPDLHRVLGQYLRDTAALSPPKATVSDTCEEVEPSLLEILPKSSERTPLPLVTQLLLQQDKVPEPASLSSNHSLTSCFTNQGYFFFHLPDALEIEACQVYFTYDPYSEEDPDEGVAGAPTGSSPQPLQPLSGEDDAYCTFPSRDDLLLFSPSLLGGPSPPSTAPGGSGAGEERMPPSLQERVPRDWDPQPLGPPTPGVPDLVDFQPPPELVLREAGEEVPDAGPREGVSFPWSRPPGQGEFRALNARLPLNTDAYLSLQELQGQDPTHLV
In the case of B2, the “NK cell numbers in presence of eltrombopag or romiplostim” value with primary human NK cells [4] is on record as “greater cell numbers than MPL-expressing NK cells”. Also, the “fold change in cell numbers” value in the data set with primary human NK cells [5] is “greater fold change in cell numbers”. In addition, in the data set with K562 target cells, the “degranulation of cytotoxic granules in response to K562 target cells” value is listed as “augmented degranulation”; the “production of IFN-gamma and TNF” value is listed as “augmented production”. In data set [3] (compared with MPL), the “intracellular signals (pSTAT5, pS6) induced via receptor” value was “comparable to those triggered by MPL”. Besides, the “proliferation in the presence of eltrombopag at high IL-2 concentrations compared with IL-2 alone” value in the data set with Human NK cells is on record as “comparable numbers”. For the same molecule, the “NK cell numbers after 6 days” value in the data set with Human NK cells (low concentrations of IL-2, with eltrombopag) was “greater numbers”.
